Experimental findings from the Immune Epitope Database (IEDB) are described below.

Test [1] addresses HLA-A*02:03. The test is described as follows: IEDB peptide-MHC binding, purified MHC/competitive/radioactivity; filed as Kd, often an IC50 or EC50 that approximates it; ≥ and ≤ were set here for values at or beyond the usual limits of such assays.
Test [2] has as its target HLA-A*02:02. Described as above.
Test [3] deals with HLA-A*02:06. The description is as above.
Test [4] deals with HLA-A*02:01. The test is described as follows: IEDB peptide-MHC binding, purified MHC/direct/fluorescence; filed as Kd, often an IC50 or EC50 that approximates it; ≥ and ≤ were set here for values at or beyond the usual limits of such assays.
The target in test [5] is HLA-A*69:01. Described as above.
[6] abbreviates: source organism: SARS coronavirus Tor2.
Setting [7] is: source organism: Vaccinia virus WR.
The mark [8] stands for this setting: source organism: Mycobacterium tuberculosis.
[9] abbreviates: source organism: Dengue virus 2 Jamaica/1409/1983.
The mark [10] stands for this setting: source organism: Mammarenavirus caliense.
Where [11] appears, read: source organism: Mammarenavirus brazilense.
The mark [12] stands for this setting: source organism: Encephalitozoon cuniculi.
The mark [13] stands for this setting: source organism: HIV-1 M:B_ARV2/SF2.

As a reminder, the Kd is the equilibrium constant for the complex coming apart.

For HLDGEVLSL, the Kd in test [1] (setting [6]) was 131 nM; in test [2] (setting [6]), 65.9 nM; in test [3] (setting [6]) it was 160 nM.

Take LLTHGADPNA: the figures for the Kd in test [1] (setting [7]), in test [2] (setting [7]) and in test [3] (setting [7]) were 7510 nM, 9610 nM and 15800 nM, respectively.

Consider DTGKKELAL, for which the Kd was found to be 156 nM in test [1] (setting [7]), 116 nM in test [2] (setting [7]) and 14200 nM in test [3] (setting [7]).

With SLKRFTHTT, the Kd was 9.05 nM in test [1] (setting [7]), 825 nM in test [2] (setting [7]) and at least 60100 nM in test [3] (setting [7]).

In turn, YLPRFLFGV displayed a Kd in test [4] (setting [8]) of 1.8 nM.

In the case of AMIHKTYIDV, the Kd amounted to 26.7 nM in test [1] (setting [7]), 335 nM in test [2] (setting [7]) and 206 nM in test [3] (setting [7]).

Regarding VMKDGRVLV, the Kd in test [1] (setting [9]) came to 50.7 nM.

YNLSLSAAV: the Kd worked out at 1140 nM in test [1] (setting [10]), 867 nM in test [2] (setting [10]) and 1660 nM in test [3] (setting [10]).

With MVAGGLLLAA, the Kd in test [3] (source organism: Dengue virus 4 Philippines/H241/1956) was found to be 19.2 nM.

On to LLDDFVEII, for which the Kd in test [1] (setting [6]) is 523 nM; in test [2] (setting [6]), 136 nM; in test [3] (setting [6]) it was 159 nM.

In the case of DTIESAKTKI, the figures for the Kd in test [1] (setting [7]), in test [2] (setting [7]) and in test [3] (setting [7]) were at least 50500 nM, at least 47900 nM and at least 69800 nM, respectively.

For the sequence TAFFNTCKPT, the Kd in test [1] (setting [7]) was at least 22300 nM; in test [2] (setting [7]), at least 31600 nM; in test [3] (setting [7]), at least 33000 nM.

Regarding DVGCLLTDT, the Kd in test [1] (setting [7]) is at least 65400 nM; in test [2] (setting [7]) it was at least 77800 nM; in test [3] (setting [7]) it was at least 77100 nM.

As for LLVQYGAKI, the Kd was determined as 358 nM in test [1] (setting [7]), 206 nM in test [2] (setting [7]) and 1140 nM in test [3] (setting [7]).

Turning to KIILFQNNDI, the results for the Kd in test [1] (setting [7]), in test [2] (setting [7]) and in test [3] (setting [7]) were 2000 nM, 1610 nM and 2170 nM, respectively.

For STISWMMKL, the equilibrium dissociation constant (Kd) in test [1] (setting [7]) was 22.8 nM; in test [2] (setting [7]), 92.2 nM; in test [3] (setting [7]), 12.1 nM.

On to VTDKTAYIGT, for which the Kd is 4000 nM in test [1] (setting [7]), at least 21800 nM in test [2] (setting [7]) and 227 nM in test [3] (setting [7]).

For KCFGNTALA, the Kd in test [1] (setting [11]) is 1090 nM; in test [2] (setting [11]) it was 31 nM; in test [3] (setting [11]) it was at least 77000 nM.

As for NLILNFLDWI, the Kd in test [1] (setting [7]) stood at 283 nM; in test [2] (setting [7]) it was 1690 nM; in test [3] (setting [7]), 443 nM.

As to MAGVEVRYI, the results for the Kd in test [1] (setting [7]), in test [2] (setting [7]) and in test [3] (setting [7]) were 201 nM, 293 nM and 2050 nM, respectively.

In the case of YMLFTKFFYL, the results for the Kd in test [1] (setting [6]), in test [2] (setting [6]) and in test [3] (setting [6]) were 45.8 nM, 47.7 nM and 20.3 nM, respectively.

In the case of TLLNETAKV, the Kd in test [1] (setting [7]) stood at 83.1 nM; in test [2] (setting [7]), 246 nM; in test [3] (setting [7]) it was 11.1 nM.

In the case of KTNTKHCPKI, the Kd in test [1] (setting [7]) was 10900 nM; in test [2] (setting [7]), at least 33800 nM; in test [3] (setting [7]), 234 nM.

In the case of VVEPPRQLV, the figures for the Kd in test [4] (setting [8]) and in test [5] (setting [8]) were at least 5000 nM and 20000 nM, respectively.

YLVPGEGEQ: the dissociation constant Kd in test [4] (setting [12]) was 7000 nM; in test [5] (setting [12]), at least 20000 nM.

Consider LVGPTPVNI, for which the values for the Kd in test [1] (setting [13]) and in test [2] (setting [13]) were 17.6 nM and 38 nM, respectively.

Take CTMERTNDLT: the Kd in test [1] (setting [7]) worked out at 16100 nM; in test [2] (setting [7]), 4050 nM; in test [3] (setting [7]), 1010 nM.

With ALYYVHSLL, the Kd worked out at 15000 nM in test [1] (setting [7]), 26.1 nM in test [2] (setting [7]) and 3260 nM in test [3] (setting [7]).

For NQATVLMGL, in test [3] (setting [9]), the Kd was 10.6 nM.

On to RMGMGVTYL, for which the Kd in test [1] (source organism: Dengue virus 3 Martinique/1243/1999) amounted to 115 nM.

As to SQFSYKELYV, the Kd in test [1] (setting [7]) turned out to be 27.2 nM; in test [2] (setting [7]) it was 14.1 nM; in test [3] (setting [7]) it was 71.4 nM.

With KAKQLCYCPA, the dissociation constant (Kd) in test [1] (setting [7]) is 188 nM; in test [2] (setting [7]), 308 nM; in test [3] (setting [7]) it was 339 nM.

Take RIVVALSSLV: the Kd was found to be 7.21 nM in test [1] (setting [7]), 47.6 nM in test [2] (setting [7]) and 9.62 nM in test [3] (setting [7]).

For KLYGYASLTT, the values for the dissociation constant (Kd) in test [1] (setting [7]), in test [2] (setting [7]) and in test [3] (setting [7]) were 0.261 nM, 1.88 nM and 34 nM, respectively.

Turning to NMDWRSLTQV, the Kd in test [1] (setting [7]) came to 17.4 nM; in test [2] (setting [7]), 100 nM; in test [3] (setting [7]), 1.69 nM.

With SMFEPEREKV, the Kd in test [1] (setting [9]) is 140 nM.

In the case of KLDDTGKKEL, the figures for the Kd in test [1] (setting [7]), in test [2] (setting [7]) and in test [3] (setting [7]) were 139 nM, 101 nM and 5530 nM, respectively.

On to YLMCLSPLMA, for which the Kd is 0.127 nM in test [1] (setting [6]), 0.237 nM in test [2] (setting [6]) and 1.29 nM in test [3] (setting [6]).
